Test results published in US20230183381A1 (VIRTUOSO BINCO, published 2023).
Numbering of substitutions follows the chain as printed.

T1: recombinant BCMA (Sino Biological 10620-H03H-B) (human, UniProt Q02223 1-54)
T1 construct: Bought protein; also called human BCMA
T1 sequence (looked up): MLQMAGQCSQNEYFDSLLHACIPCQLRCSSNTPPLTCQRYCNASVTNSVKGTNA

B1: Anti-BCMA.BMK2_ADCC.high (antibody, human IgG1, kappa)
heavy: EVQLQQSGAVLARPGASVKMSCKGSGYTFTNYWMHWVKQRPGQGLEWIGATYRGHSDTYYNQKFKGKAKLTAVTSTSTAYMELSSLTNEDSAVYYCTRGAIYNGYDVLDNWGQGTLVTVSSASTKGPSVFPLAPSSKSTSGGTAALGCLVKDYFPEPVTVSWNSGALTSGVHTFPAVLQSSGLYSLSSVVTVPSSSLGTQTYICNVNHKPSNTKVDKKVEPKSCDKTHTCPPCPAPELLGGPDVFLFPPKPKDTLMISRTPEVTCVVVDVSHEDPEVKFNWYVDGVEVHNAKTKPREEQYNSTYRVVSVLTVLHQDWLNGKEYKCKVSNKALPLPEEKTISKAKGQPREPQVYTLPPSRDELTKNQVSLTCLVKGFYPSDIAVEWESNGQPENNYKTTPPVLDSDGSFFLYSKLTVDKSRWQQGNVFSCSVMHEALHNHYTQKSLSLSPGK
light: DIQLTQTTSSLSASLGDRVTISCSASQDISNYLNWYQQKPDGTVELVIYYTSNLHSGVPSRFSGSGSGTDYSLTIGYLEPEDVATYYCQQYRKLPWTFGGGSKLEIKRRTVAAPSVFIFPPSDEQLKSGTASVVCLLNNFYPREAKVQWKVDNALQSGNSQESVTEQDSKDSTYSLSSTLTLSKADYEKHKVYACEVTHQGLSSPVTKSFNRGEC
notes: Monoclonal IgG1 with ADCC-high Fc mutations; also called ADCC-high variant of Anti-BCMA BMK2 antibody
B2: humanized h18E4-19 antibody (antibody, V domains shown)
VH: EVQLLESGGGLVQPGGSLRLSCAASGFSFNNYWIIWIRQAPGKGLEWVAAIYSPSGDIKYYADWAKGRFTVSKDNSKNTVYLQMNSLRAEDTAVYYCARELSGSSYEGYFESWGQGTLVTVSS
VL: DIQLTQSPSTLSASVGDRVTITCRSSQSVYGHNWLAWYQQKPGKAPKLLMYRASNLASGVPSRFSGSGSGTEFTLTISSVQPDDFATYYCQGYYSGGSYAFGGGTKVEIK
notes: the control is hIgG1; also called hu18E4-19; Anti-CD38
B3: Anti-CD38 HC_Y100dA (antibody, V domains shown)
VH: B2 VH with Y109A
VL: B2 VL
notes: Alanine variant of h18E4-19 with the parent VL
B4: Anti-CD38 LC_S95aA (antibody, V domains shown)
VH: B2 VH
VL: B2 VL with S98A
notes: Alanine variant of h18E4-19 with the parent VH
B5: Anti-CD38 LC_Q89A (antibody, V domains shown)
VH: B2 VH
VL: B2 VL with Q91A
notes: Alanine variant of h18E4-19 with the parent VH; also called Anti-CD38med
B6: Anti-CD38 HC_E95A (antibody, V domains shown)
VH: B2 VH with E100A
VL: B2 VL
notes: as for B3
B7: Anti-CD38 LC_G90A (antibody, V domains shown)
VH: B2 VH
VL: B2 VL with G92A
notes: as for B4
B8: Anti-CD38 HC_E100bA (antibody, V domains shown)
VH: B2 VH with E107A
VL: B2 VL
notes: as for B3
B9: Anti-CD38 LC_S93A (antibody, V domains shown)
VH: B2 VH
VL: B2 VL with S95A
notes: as for B4
B10: Anti-CD38 HC_G100cA (antibody, V domains shown)
VH: B2 VH with G108A
VL: B2 VL
notes: as for B3
B11: Anti-CD38 HC_S100A (antibody, V domains shown)
VH: B2 VH with S105A
VL: B2 VL
notes: as for B3
B12: Anti-CD38 LC_Y92A (antibody, V domains shown)
VH: B2 VH
VL: B2 VL with Y94A
notes: as for B4
B13: Anti-CD38 LC_Y96A (antibody, V domains shown)
VH: B2 VH
VL: B2 VL with Y99A
notes: as for B4
B14: Anti-CD38 LC_G94A (antibody, V domains shown)
VH: B2 VH
VL: B2 VL with G96A
notes: Alanine variant of h18E4-19 with the parent VH; also called Anti-CD38low
B15: Anti-CD38 HC_L96A (antibody, V domains shown)
VH: B2 VH with L101A
VL: B2 VL
notes: as for B3
B16: Anti-CD38 LC_G95A (antibody, V domains shown)
VH: B2 VH
VL: B2 VL with G97A
notes: as for B4
B17: Anti-CD38 HC_F100eA (antibody, V domains shown)
VH: B2 VH with F110A
VL: B2 VL
notes: as for B3
B18: Anti-CD38 HC_Y100aA (antibody, V domains shown)
VH: B2 VH with Y106A
VL: B2 VL
notes: as for B3
B19: Anti-CD38 LC_Y91A (antibody, V domains shown)
VH: B2 VH
VL: B2 VL with Y93A
notes: as for B4
B20: Anti-CD38 HC_S99A (antibody, V domains shown)
VH: B2 VH with S104A
VL: B2 VL
notes: as for B3
B21: Anti-CD38 HC_G98A (antibody, V domains shown)
VH: B2 VH with G103A
VL: B2 VL
notes: as for B3
B22: Anti-CD38 HC_S102A (antibody, V domains shown)
VH: B2 VH with S112A
VL: B2 VL
notes: as for B3
B23: Anti-CD38 HC_E101A (antibody, V domains shown)
VH: B2 VH with E111A
VL: B2 VL
notes: as for B3
B24: Anti-CD38 HC_S97A (antibody, V domains shown)
VH: B2 VH with S102A
VL: B2 VL
notes: as for B3
B25: Anti-BCMA (antibody, human IgG1, kappa)
heavy: not shown
light: DIQLTQTTSSLSASLGDRVTISCSASQDISNYLNWYQQKPDGTVELVIYYTSNLHSGVPSRFSGSGSGTDYSLTIGYLEPEDVATYYCQQYRKLPWTFGGGSKLEIKRTVAAPSVFIFPPSDEQLKSGTASVVCLLNNFYPREAKVQWKVDNALQSGNSQESVTEQDSKDSTYSLSSTLTLSKADYEKHKVYACEVTHQGLSSPVTKSFNRGEC
notes: also called Anti-BCMA BMK2 antibody; Anti-BCMA.BMK2

Tests used:
[1] = biological target: T1, recombinant BCMA (Sino Biological …); assay: ELISA, plate coated with recombinant BCMA
Procedure: After washing 3 times, the plate was blocked with 300 μl 1% BSA in PBST at 37° C. for 1 hour. Serially diluted antibodies were added and incubated at 37° C. for 1 hour. The plate was then washed 4 times with PBST and incubated with 1:5000 diluted 2nd antibody (Sigma, Cat #A0293) at 37° C. for 1 hour. The plate was washed again 4 times with PBST, incubated with TMB substrate for 15 min at room temperature, terminated with IN HCl, and then read at 450 nm.

[2] = biological target: T2, human CD38 extracellular domain (hCD38, recombinant, with AviTag) (human, UniProt P28907 43-300); assay: ELISA on human CD38 ECD, EC50 class
T2 construct: also called recombinant CD38; huCD38

Row | Binder | EC50 [1] | EC50 [2]
1 | B1 | ~0.02 nM | 
2 | B2 |  | 0.02 to 0.1 nM
3 | B3 |  | > 0.5 nM
4 | B4 |  | 0.02 to 0.1 nM
5 | B5 |  | 0.02 to 0.1 nM
6 | B6 |  | > 0.5 nM
7 | B7 |  | 0.1 to 0.5 nM
8 | B8 |  | > 0.5 nM
9 | B9 |  | 0.1 to 0.5 nM
10 | B10 |  | 0.1 to 0.5 nM
11 | B11 |  | 0.02 to 0.1 nM
12 | B12 |  | 0.02 to 0.1 nM
13 | B13 |  | 0.1 to 0.5 nM
14 | B14 |  | > 0.5 nM
15 | B15 |  | 0.02 to 0.1 nM
16 | B16 |  | 0.02 to 0.1 nM
17 | B17 |  | 0.02 to 0.1 nM
18 | B18 |  | 0.02 to 0.1 nM
19 | B19 |  | > 0.5 nM
20 | B20 |  | 0.02 to 0.1 nM
21 | B21 |  | 0.02 to 0.1 nM
22 | B22 |  | 0.02 to 0.1 nM
23 | B23 |  | 0.02 to 0.1 nM
24 | B24 |  | 0.02 to 0.1 nM
25 | B25 | ~0.02 nM | 
